Results published in the supplement of paper PMC10567573.
± gives the standard deviation.

Assay: protein stability index of a GFP-peptide fusion (GPS, HEK-293T) (PSI 1-6); higher = more stable
[1] = treatment: DMSO, c terminus: a fixed tail appended
[2] = treatment: MLN4924 1 uM, 8 h, c terminus: a fixed tail appended
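Note: 24-mer peptide tiles fused after GFP, lentivirally expressed, FACS-sorted into six equal bins by GFP/DsRed ratio, decoded by Illumina sequencing, PSI is the read-weighted mean bin number.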

Sequence	protein stability index [1]	protein stability index [2]	protein stability index (treatment: DMSO, c terminus: native)	protein stability index (treatment: MLN4924 1 uM, 8 h, c terminus: native)
SVNWRTGSFHGPGHISLRRENSSD [DLC1]	3.78 ± 0.21	3.86 ± 0.2	–	–
SGRDRVGRQERGLPPSMERGYPPP [RBMX]	4 ± 0.38	3.94 ± 0.19	–	–
SRVTDAAFNFLLVWYYCTLTIRES [TMEM120A]	3 ± 0.1	2.62 ± 0.45	–	–
HPTYEEKLKLVALHKQVLMGPYNP [ACBD3]	2.6 ± 0.34	2.69 ± 0.37	–	–
LKPSWFDFGFAILGFAYAKEDKIM [MIA2]	3.06 ± 0.61	2.34 ± 0.53	–	–
DPSGVSGATVGRKSRRSRSESETS [C18orf25]	5.69 ± 0.17	5.42 ± 0.49	–	–
MNELQHDLDVVSDALAKVSRKPSI [TPH1]	4.27 ± 0.22	4.42 ± 0.32	–	–
HDLIFWRDVKKTGFVFGTTLIMLL [RTN3]	2.81 ± 0.37	2.66 ± 0.49	–	–
AIQLLSRMEYVHSKNLIYRDVKPE [CSNK1G1]	2.28 ± 0.2	2.33 ± 0.31	–	–
LSRTNEELLWKLQTGDPTSPIKLS [MTUS2]	3.49 ± 0.12	3.35 ± 0.25	–	–
PVEDSHTADISSHFQEAIDFIDCV [DUSP5]	4.54 ± 0.21	4.44 ± 0.32	–	–
IRIIDRALKEDFGFKHRLWVYSGR [PRIM1]	2.18 ± 0.51	2.27 ± 0.51	–	–
SNNITLREDQLDTVLAVLEDSSRD [INTS4]	5.25 ± 0.18	5.28 ± 0.16	–	–
QSDTLEQREEHELVHVMERSLSPS [RAD54B]	5.45 ± 0.26	5.33 ± 0.23	–	–
AEITQIQSHISDMSVILSMDNNRN [KRT71]	3.73 ± 0.16	3.7 ± 0.14	–	–
DHEDFTGSSSLGFTSSPSPFSSSS [FCHO1]	4.45 ± 0.15	4.37 ± 0.14	–	–
LSQLSSHDPLWRRHCKKYWLISEE [FBXO3]	2.54 ± 0.069	2.67 ± 0.4	–	–
LHHKRLAKECMLQEENKSLREENK [CBY2]	4.87 ± 0.39	4.89 ± 0.21	–	–
SIALRNISLAKGPPGPKGDQGDEG [SCARA5]	4.68 ± 0.09	4.86 ± 0.2	–	–
KSSIYESDFQIEPGFYATYESTLF [MIA2]	2.33 ± 0.52	2.3 ± 0.31	–	–
ESKLLGSNSSRMYFTQTLLPGLAG [MLH1]	3.12 ± 0.24	3.12 ± 0.5	–	–
PSDLDSTGNSLNEPEEPSEIPERR [DLC1]	5.64 ± 0.21	5.62 ± 0.23	–	–
DEELHLLIISCRKLFYFKIWAFLD [FBXO39]	2.75 ± 0.52	2.47 ± 0.69	–	–

Sequence	protein stability index [1]	protein stability index [2]	protein stability index (treatment: DMSO, c terminus: native)	protein stability index (treatment: MLN4924 1 uM, 8 h, c terminus: native)
CQSGYFSSMFSGSWKESSMNIIEL [GMCL1]	2.53 ± 0.37	2.34 ± 0.77	–	–
EIPTGKKDHECSECGKTFIYNSHL [ZNF232]	3.7 ± 0.21	3.49 ± 0.28	–	–
RLHLAFKRQVPTEQAQAYAERLGV [RAB40B]	3.13 ± 0.2	3.1 ± 0.26	–	–
SLADGGSASPIKDQPVMAVKTGED [FANCE]	5.46 ± 0.23	5.6 ± 0.16	–	–
ISPETMVALLTGKFSNIVDKFVIV [CDC25B]	2.29 ± 0.51	2.38 ± 0.73	–	–
IQPDDLINQLTFIMDANQTYLVSE [FAF2]	2.32 ± 0.27	2.37 ± 0.31	–	–
CAGKAKRSGGHAPRVRELLLDALS [ESR2]	2.38 ± 0.29	2.52 ± 0.25	–	–
QCWKSLFIDTYSDVGRYIDHYAAI [FBXO3]	2.65 ± 0.48	2.8 ± 0.72	–	–
MLTLPFDESVVMPESQMCRKFSRE [NEUROD6]	3.65 ± 0.15	3.77 ± 0.15	–	–
VLIRYPNSLDTTSWAWRGPGVLKV [LPCAT4]	2.77 ± 0.23	2.69 ± 0.8	–	–
VFLHLLLLFKLVAPVTFRHHRYDD [CPN1]	3.12 ± 0.13	3.14 ± 0.23	–	–
DPGQVGLINSNVSMVDLTSVTLED [FAN1]	5.05 ± 0.092	4.79 ± 0.2	–	–
SHRPNQHNTVKLGAFQAQEKELVF [PRIM1]	3.06 ± 0.62	3.25 ± 0.37	–	–
SRAEPIRTTVFQYPVGWPPVQELP [ZMAT5]	2.38 ± 0.41	2.82 ± 0.34	–	–
RPSLVIHLRIHTGEKPYKCTHCSK [ZNF449]	2.51 ± 0.49	2.31 ± 0.54	–	–
YISPELCEGKPYNQKSDIWALGCV [NEK8]	2.19 ± 0.41	2.01 ± 0.19	–	–
KNALEKYGPLKPLPQTPHLEEDLK [MYBL2]	5.16 ± 0.38	5.11 ± 0.2	–	–
EARGLRLSDLEDLEEEEEEEEEAE [IRX6]	5.55 ± 0.41	5.5 ± 0.39	–	–
FFYGETVTDYFFTLVQREEPLRIL [CDS2]	2.73 ± 0.66	2.17 ± 0.46	–	–
EHIADALRAIDFGTDEEEEEFIEE [TRIM63]	5.34 ± 0.2	5.36 ± 0.32	–	–
LLDQIREGAQLKKVEQNSRPVSCS [WASL]	4.852 ± 0.026	4.63 ± 0.24	–	–
QLESLGLLAPGEQSLPCTERKPAA [KISS1]	4.69 ± 0.18	4.73 ± 0.15	–	–
KDEEGRLRDPATITTLRVPVLRPM [PPP2R2B]	3.78 ± 0.23	4.04 ± 0.26	–	–

Sequence	protein stability index [1]	protein stability index [2]	protein stability index (treatment: DMSO, c terminus: native)	protein stability index (treatment: MLN4924 1 uM, 8 h, c terminus: native)
NFSKKIQQIHVVSQFKILVSLLEN [VPS39]	2.64 ± 0.39	2.81 ± 0.66	–	–
SATSKLIHPDEDISLEERRAQLPK [ZNF207]	4.9 ± 0.28	5.08 ± 0.2	–	–
MEHALREKAKAFWAMRRSYEAIAK [TRIM35]	2.46 ± 0.12	2.59 ± 0.45	–	–
LHQTIYNQACKLLSDDYEQVRSAA [INTS4]	2.96 ± 0.48	3.09 ± 0.19	–	–
AVSCPYLPSNLLKKFRSSTSSSLG [KCNA4]	2.54 ± 0.21	2.58 ± 0.2	–	–
LKYIGMAKREINKLLKQKEKKNE [ARL6IP1]	–	–	3.7 ± 0.17	3.83 ± 0.31
SNFDDFPESDILQPVPNTTEPDYK [STK38L]	5.59 ± 0.25	5.24 ± 0.29	–	–
CTHCSKSFRQRAGLIMHQVTHFRG [ZNF449]	2.46 ± 0.53	3.02 ± 0.52	–	–
PPALLPLYFQWYIFYFVIQRKKWV [FADS1]	2.68 ± 0.059	2.73 ± 1.6	–	–
DENSSDGRYVKENCKPLKSYMLQD [CLK3]	4.57 ± 0.49	4.36 ± 0.11	–	–
ALRQTVEADVNGLRRVLDELTLAR [KRT16]	3.18 ± 0.58	3.06 ± 0.33	–	–
AVDCKWYIRAPPRSKIYLRFLDYE [NETO1]	2.43 ± 0.24	2.19 ± 0.38	–	–
CFIQSSHLIRHQITHTREEQPHGR [ZNF8]	3.4 ± 0.12	3.37 ± 0.23	–	–
LCIIWFSFELLVRFFACPSKATFS [KCNA3]	3.13 ± 0.39	3.12 ± 0.58	–	–
FGELRLGKNLYTNEYVAIKLEPIK [CSNK1G1]	3.02 ± 0.94	2.04 ± 0.47	–	–
ATIVFATDFYLIFNDVAKFLKQGD [CMTM3]	2.9 ± 0.91	2.77 ± 0.43	–	–
PRVEYIDRPRCCLRGKECCINRFQ [BTBD1]	2.42 ± 0.13	2.61 ± 0.28	–	–
NYCLLFLIYTVMLAFRSGSDNLLV [SLC35F2]	3.04 ± 0.44	3.29 ± 0.79	–	–
EEENPGGCEDEYLVNPTCQVLVKD [ZER1]	5.54 ± 0.22	5.54 ± 0.22	–	–
PKQLRLINQPLPDLKNVKSKIGST [MAP2]	3.9 ± 0.1	3.88 ± 0.19	–	–
LSLCICGTAITSQYLAERYKVNTP [SLC35F2]	2.83 ± 0.51	2.63 ± 0.42	–	–
ALQRLDLRNNQISHKGAEELALAL [LRRC45]	3.22 ± 0.24	3.05 ± 0.43	–	–
QLATSSFLLFLLTGIVSVAFLLLP [MOSPD3]	3.5 ± 0.19	2.88 ± 0.54	–	–

Sequence	protein stability index [1]	protein stability index [2]	protein stability index (treatment: DMSO, c terminus: native)	protein stability index (treatment: MLN4924 1 uM, 8 h, c terminus: native)
FDHPIPRVFQNRFSTQYRCFSVSM [UFD1]	2.89 ± 1	2.45 ± 0.6	–	–
PPGHHAEQDAACGFCFFNSVAVAA [HDAC6]	2.88 ± 0.51	2.96 ± 0.68	–	–
QKFDTLYAILDEKKSELLQRITQE [TRIM63]	3.11 ± 0.095	3.21 ± 0.29	–	–
TNSDTPTSFNHMDSDKLSGLWSRI [TOR1AIP2]	3.21 ± 0.21	3.1 ± 0.39	–	–
GGGGLHSVGTYIIDLLTFLTGQKA [GFOD1]	2.1 ± 0.31	1.98 ± 0.36	–	–
FTTFFIDCMAALGLAYDRKKVSKA [SCD]	2.07 ± 0.32	2.26 ± 0.53	–	–
KFLIWDTAGQERFRALAPMYYRGS [RAB22A]	2.39 ± 0.23	2.55 ± 0.33	–	–
TCVAVGSPMPYVKWMLGAEDLTPE [PTPRD]	2.97 ± 0.33	3.14 ± 0.38	–	–
MHLKPYWKLQKKEHPPEVSRETQR [FBXO34]	3.58 ± 0.18	3.78 ± 0.33	–	–
RERQRRLEVEREAEKKREAKQRAK [LRRC59]	5.22 ± 0.29	5.43 ± 0.06	–	–
EERATRLAELQEQLKAVHEQLAAL [BRD3]	4.59 ± 0.22	4.31 ± 0.062	–	–
RLNFQTPGMASHPPIPILELADHI [PTPRD]	3.23 ± 0.2	3.08 ± 0.087	–	–
VLVEKYGWPHEDAAQFTDFLIPML [SRPK2]	2.38 ± 0.26	2.4 ± 0.26	–	–
EETHLEETTESQQNGEEGTSTPED [SMARCE1]	5.48 ± 0.29	5.63 ± 0.23	–	–
SPRRVGFVGAGRMAGAIAQGLIRA [PYCR3]	2.66 ± 0.15	2.78 ± 0.14	–	–
EVDPVRRAVRDRNLLRDDRVLQNL [CCND2]	4.1 ± 0.2	4.01 ± 0.27	–	–
DLQITDQVALLRLTWSELFVLNAA [NR2F2]	2.92 ± 0.58	2.88 ± 0.65	–	–
LRRRLEELQQELSLKDQERVAEVS [LRRC45]	4.07 ± 0.42	3.89 ± 0.32	–	–
SRAPQLHLEYRFYKQLGSAGEGLP [CSNK1G1]	2.73 ± 0.44	2.84 ± 0.19	–	–
VDEAAAESPSFLSLRKGASLSNGQ [NCK2]	4.83 ± 0.14	5.08 ± 0.23	–	–
